# From PMC10069731 (Communications Biology, 2023)
# B1: rabbit monoclonal antibody (RmAb) 1H1, IgG (antibody, V domains shown)
# VH: QSLEESGGDLVKPGASLTLTCTASGFSFSSGYDMCWVRQAPGKGLEWIACIGTGSSGNIYYASWAKGRFTISKTSSTTVTLQMTSLTAADTATYFCARDDADYAGPDYFNLWGPGTLVTVSS
# VL: DIVMTQTPASVSEPVGGTVTIKCQASESISNWLAWYQQKPGQPPKLLIYAAFTLASGVPSRFKGSGSGTQFTLTINGVECADAATYYCQQTYSSRDVDNVFGGGTEVVVK
# Columns and labels:
# [1] = biological target: SARS-CoV-2 Omicron BA.4/5 RBD (SARS-CoV-2 Omicron BA.4/5, strain); experiment: BLI; settings: both partners purified
# [2] = biological target: SARS-CoV-2 WT spike ECD, 6P-stabilized (SARS-CoV-2, WT (ancestral), UniProt P0DTC2, stabilised); experiment: ELISA; settings: both partners purified
binder,measurement,setting,value
B1,Kd,[1],1.33 nM
same,binding result,[2],binds
